Test results from IntAct's records for PubMed 20562859.

Tests used:
rasf5_human RASSF5 = molecular target: T1, rasf5_human RASSF5 (UniProt Q8WWW0)
T1 sequence: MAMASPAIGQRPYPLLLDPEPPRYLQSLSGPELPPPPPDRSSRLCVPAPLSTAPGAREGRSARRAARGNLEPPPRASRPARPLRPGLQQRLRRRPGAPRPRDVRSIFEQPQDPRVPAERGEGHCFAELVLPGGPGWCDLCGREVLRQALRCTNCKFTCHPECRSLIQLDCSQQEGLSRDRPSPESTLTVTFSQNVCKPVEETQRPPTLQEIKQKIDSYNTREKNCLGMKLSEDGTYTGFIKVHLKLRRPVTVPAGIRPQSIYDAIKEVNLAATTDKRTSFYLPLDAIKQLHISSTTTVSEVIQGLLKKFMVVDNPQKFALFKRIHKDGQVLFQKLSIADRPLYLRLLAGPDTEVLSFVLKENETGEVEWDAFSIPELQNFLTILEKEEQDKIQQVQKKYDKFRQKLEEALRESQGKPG

kap0_human PRKAR1A = kap0_human PRKAR1A (UniProt P10644)
Sequence of kap0_human PRKAR1A (P10644 whole entry): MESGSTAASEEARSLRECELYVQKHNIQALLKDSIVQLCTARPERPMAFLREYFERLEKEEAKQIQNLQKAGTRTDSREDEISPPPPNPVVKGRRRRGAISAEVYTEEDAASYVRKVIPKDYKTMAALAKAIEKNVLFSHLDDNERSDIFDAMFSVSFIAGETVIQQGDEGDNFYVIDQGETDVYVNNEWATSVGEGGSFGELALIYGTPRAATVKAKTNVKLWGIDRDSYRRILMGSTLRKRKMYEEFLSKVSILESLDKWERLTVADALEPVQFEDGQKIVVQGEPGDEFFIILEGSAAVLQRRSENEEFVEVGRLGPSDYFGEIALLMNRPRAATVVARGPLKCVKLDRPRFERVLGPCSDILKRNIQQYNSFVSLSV

| effect of a mutation on the interaction (rasf5_human RASSF5) | effect of a mutation on the interaction (kap0_human PRKAR1A) | Substance |
| --- | --- | --- |
| increasing interaction | – | Microtubule-associated protein 1 light chain 3 beta (Homo sapiens) (from UniProt Q9GZQ8) F52A;L53A |
| – | decreasing interaction | Microtubule-associated protein 1 light chain 3 beta (Homo sapiens) (from UniProt Q9GZQ8) R69A |
